In assay [1] the test system is HeLa cells expressing GFP-topors or GFP-PML. Briefly: imaging of GFP-topors or GFP-PML in nuclear bodies before and after treatment. It counts as cell-based, human. Particulars: 10 μM, thirty minutes. As to the method:
Acute promyelocytic leukemia, a type of cancer affecting the blood, is characterized by an abnormal block in the development of stem cells. It has now been discovered that topors localizes in nuclear bodies associated with promyelocytic leukemia (PML) oncogenic domains. In these experiments HeLa cells were immunostained with antibodies recognizing both topors and PML. Separate and merged fluorescent images from a representative cell were analyzed. PML nuclear bodies are nuclear depot sites, which are disrupted in cells from patients with promyelocytic leukemia with t (15;17) . Topors relocalized to the nucleoplasm after DNA damage. […] In these experiments, HeLa cells expressing GFP-topors or GFP-PML were imaged before and after treatment with 0.1% DMSO, 10 μM DRB, 10 μM CPT, or 30 μM cycloheximide for thirty minutes.

In a further assay the target is T1, top1 (Homo sapiens, UniProt P11387).
T1 sequence (P11387 1-765): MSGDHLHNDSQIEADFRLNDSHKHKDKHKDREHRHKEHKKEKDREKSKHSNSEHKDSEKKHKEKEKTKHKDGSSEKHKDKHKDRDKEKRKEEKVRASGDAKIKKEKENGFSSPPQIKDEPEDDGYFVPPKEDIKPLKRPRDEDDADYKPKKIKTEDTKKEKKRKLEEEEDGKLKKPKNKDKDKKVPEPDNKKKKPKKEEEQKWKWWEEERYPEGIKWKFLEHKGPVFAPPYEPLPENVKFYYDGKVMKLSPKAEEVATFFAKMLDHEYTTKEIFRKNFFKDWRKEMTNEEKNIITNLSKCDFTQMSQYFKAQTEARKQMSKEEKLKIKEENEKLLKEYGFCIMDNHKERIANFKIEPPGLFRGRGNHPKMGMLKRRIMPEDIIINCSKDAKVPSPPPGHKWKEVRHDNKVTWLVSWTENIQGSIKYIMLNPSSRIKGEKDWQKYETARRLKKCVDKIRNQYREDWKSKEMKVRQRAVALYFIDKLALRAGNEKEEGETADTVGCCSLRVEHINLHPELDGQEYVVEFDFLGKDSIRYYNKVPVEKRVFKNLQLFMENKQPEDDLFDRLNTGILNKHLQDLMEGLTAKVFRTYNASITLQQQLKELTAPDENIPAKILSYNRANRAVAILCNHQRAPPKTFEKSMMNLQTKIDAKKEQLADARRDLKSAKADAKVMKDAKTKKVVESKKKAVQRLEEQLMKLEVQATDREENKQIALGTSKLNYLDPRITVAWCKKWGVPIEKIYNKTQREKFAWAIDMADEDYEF
The assay can be described thus: in vitro top1 sumoylation with purified components. In kind it is biochemical. Particulars: purified sumo conjugation components, purified top1 and topors. How it is done:
Topors is homologous in the RING domain to proteins implicated in conjugation of ubiquitin and SUMO, such as MDM2 and BRCA1. Previously, it has been shown that topors binds to the N-terminus of top1. […] Topors also redistributes from PML (promyelocytic leukemia) nuclear bodies to a diffuse nuclear localization when exposed to CPT. When incubated with a HeLa cell fraction containing SAE1/SAE2, purified SUMO-1, and purified Ubc9, minimal top1-SUMO conjugates could be detected using Top1 and SUMO antibodies.
Using purified components of the sumo conjugation system as well as purified top1 and topors, top1-SUMO conjugates were detected. Removing any of the sumoylation components or topors abrogated top1 sumoylation.

Another assay addresses p53 (Homo sapiens, UniProt P04637). Briefly: in vitro sumoylation of p53. The following applies: E1 and Ubc9. In kind it is biochemical. How it is done:
(§1) Reaction products were analyzed using monoclonal anti-p53 and polyclonal anti-IkBα antibodies.

Another assay has as its target T2, IkBα (Homo sapiens, UniProt P25963).
T2 sequence (P25963 1-317): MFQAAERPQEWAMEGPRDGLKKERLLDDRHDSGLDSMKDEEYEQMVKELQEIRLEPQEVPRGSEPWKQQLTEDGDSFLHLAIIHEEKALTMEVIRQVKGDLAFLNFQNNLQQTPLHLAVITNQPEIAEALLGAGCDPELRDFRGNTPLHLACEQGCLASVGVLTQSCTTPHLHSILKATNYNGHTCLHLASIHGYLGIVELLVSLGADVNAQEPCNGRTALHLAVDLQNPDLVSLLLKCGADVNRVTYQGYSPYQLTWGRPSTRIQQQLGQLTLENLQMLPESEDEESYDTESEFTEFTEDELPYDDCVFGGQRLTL
The assay can be described thus: in vitro sumoylation of IkBα. Particulars: E1 and Ubc9. It counts as biochemical. As to the method: as §1

Another assay deals with ubiquitin. The assay can be described thus: in vitro ubiquitination reaction with E1, E2 proteins and ubiquitin. It counts as biochemical. Particulars: 400 ng E1, 200 ng E2, 3 μg ubiquitin, ~100 ng GST-topors or GST. As to the method:
This analysis was carried out using reactions containing 400 ng E1, 200 ng of various E2 proteins, 3 μg of ubiquitin, and either ˜100 ng GST-topors or GST. Reaction products were resolved by SDS-PAGE under reducing conditions. Migration of probable poly-ubiquitin chains was determined. All E2s were active as assessed by thiolester formation.

Another assay deals with mammalian cells. The assay can be described thus: SUMO-2 conjugate formation in cells. It counts as cell-based.
Source text: Additionally, it was shown that topors functions as an E3-type ubiquitin ligase an E3-type SUMO ligase for topoisomerase and p53. Thus, topors is a dual function ubiquitin and SUMO ligase. Recombinant topors enhances formation of polyubiquitin conjugates by specific E2 ubiquitin enzymes in vitro, with the RING domain necessary and sufficient for this activity. While topors-induced ubiquitination of bacterially expressed top1 was unable to be detected in vitro, similar assays using Ubc9, SAE1/SAE2, and SUMO-1 indicate that topors stimulates formation of top1-SUMO-1 conjugates by Ubc9. […] Instead, this activity maps to the 536-704 region, which contains a nuclear localization sequence and is within the top1-binding region. Ectopic expression of topors in HeLa cells increases formation of SUMO-2 conjugates.
as §1

In assay [2] the test system is cervical cancer cell line. Briefly: overexpression of topors in cancer cell line. It counts as cell-based. The text has this:
The topors protein was not detected in lysates from several different tumor cell lines. In this regard, in matched normal and tumor human tissue specimens, the topors protein was detectable only in normal tissues (FIGS. 3 and 4).

Sequence of p53 (P04637 whole entry, species assumed): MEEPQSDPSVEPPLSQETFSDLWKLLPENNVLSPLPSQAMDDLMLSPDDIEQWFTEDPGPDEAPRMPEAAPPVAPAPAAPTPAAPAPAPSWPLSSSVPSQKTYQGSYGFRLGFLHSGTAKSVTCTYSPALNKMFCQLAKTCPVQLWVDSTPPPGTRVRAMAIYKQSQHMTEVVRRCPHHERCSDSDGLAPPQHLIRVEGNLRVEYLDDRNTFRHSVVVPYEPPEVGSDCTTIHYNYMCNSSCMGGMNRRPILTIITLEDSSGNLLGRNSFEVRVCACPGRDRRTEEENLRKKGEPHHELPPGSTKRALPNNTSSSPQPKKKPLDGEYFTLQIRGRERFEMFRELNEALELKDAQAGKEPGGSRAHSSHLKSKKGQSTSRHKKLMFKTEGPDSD

`CC[C@@]1(O)C(=O)OCc2c1cc1n(c2=O)Cc2cc3ccccc3nc2-1` [CPT, camptothecin]: in assay [1], the “dispersion of topors / PML from nuclear bodies” value was “induce rapid dispersion of topors but not PML from nuclear bodies”.
For the molecule `OC[C@H]1O[C@@H](n2cnc3cc(Cl)c(Cl)cc32)[C@H](O)[C@@H]1O` [DRB], in assay [1], the “dispersion of topors / PML from nuclear bodies” value was “induce rapid dispersion of topors but not PML from nuclear bodies”.

B1: topors: RING protein that binds topoisomerase 1 and p53; dual E3 ubiquitin/SUMO ligase (protein)
chain: MGSQPPLGSPLSREEGEAPPPAPASEGRRRSRRVRLRGSCRHRPSFLGCRELAASAPARPAPASSEIMASAAKEFKMDNFSPKAGTSKLQQTVPADASPDSKCPICLDRFDNVSYLDRCLHKFCFRCVQEWSKNKAECPLCKQPFDSIFHSVRAEDDFKEYVLRPSYNGSFVTPDRRFRYRTTLTRERNASVYSPSGPVNRRTTTPPDSGVLFEGLGISTRPRDVEIPQFMRQIAVRRPTTADERSLRKIQEQDIINFRRTLYRAGARVRNIEDGGRYRDISAEFFRRNPACLHRLVPWLKRELTVLFGAHGSLVNIVQHIIMSNVTRYDLESQAFVSDLRPFLLNRTEHFIHEFISFARSPFNMAAFDQHANYDCPAPSYEEGSHSDSSVITISPDEAETQELDINVATVSQAPWDDETPGPSYSSSEQVHVTMSSLLNTSDSSDEELVTGGATSQIQGVQTNDDLNNDSDDSSDNCVIVGFVKPLAERTPELVELSSDSEDLGSYEKMETVKTQEQEQSYSSGDSDVSRCSSPHSVLGKDEQINKGHCDSSTRIKSKKEEKRSTSLSSPRNLNSSVRGDRVYSPYNHRHRKRGRSRSSDSRSQSRSGHDQKNHRKHHGKKRMKSKRSRSRESSRPRGRRDKKRSRTRDSSWSRRSQTLSLSSESTSRSRSRSSDHGKRRSRSRNRDRYYLRNNYGSRYKWEYTYYSRNKDRDGYESSYRRRTLSRAHYSRQSSSPEFRVQSFSERTNARKKNNHSERKYYYYERHRSRSLSSNRSRTASTGTDRVRNEKPGGKRKYKTRHLEGTNEVAQPSREFASKAKDSHYQKSSSKLDGNYKNESDTFSDSRSSDRETKHKRRKRKTRSLSVEIVYEGKATDTTKHHKKKKKKHKKKHKKHHGDNASRSPVVITIDSDSDKDSEVKEDTECDNSGPQDPLQNEFLAPSLEPFETKDVVTIEAEFGVLDKECDIATLSNNLNNANKTVDNIPPLAASVEQTLDVREESTFVSDLENQPSNIVSLQTEPSRQLPSPRTSLMSVCLGRDCDMS
For B1, the “top1 sumoylation in vitro” value in the assay with top1 is recorded as “enhances top1 sumoylation in vitro”. Besides, in the assay with p53, the “sumoylation of p53” value was “activates sumoylation of p53”. Further, the “sumoylation of IkBα” value in the assay with IkBα is reported as “not IkBα”. For the same molecule, in the assay with ubiquitin, the “E3 ubiquitin ligase function (poly-ubiquitin chains)” value is “functions as an E3 ubiquitin ligase”. The SUMO-2 conjugates result with mammalian cells was “increases SUMO-2 conjugates”. In addition, the “effect of overexpression on cancer cells” value in assay [2] is recorded as “cell death”.

Source of the values: US7632650B2, “Diagnostics and therapeutic uses of topors” (University of Medicine and Dentistry of New Jersey, priority 2002, dated 2009).
